Data: article PMC10560217, “Structural conservation of insulin/IGF signalling axis at the insulin receptors level in Drosophila and humans” (Nature Communications, 2023)

Molecular target: the molecule itself
Assay: cryo-EM structure; equal volumes of 10 uM dmIR-ECD and 50 uM DILP5 (five-molar hormone excess) in 50 mM Tris, 150 mM NaCl, pH 7.4; reconstruction at 4.0 A

B1: Drosophila insulin receptor ectodomain (dmIR-ECD) (domain or fragment, Drosophila melanogaster, UniProt P09208 264-1309, looked up)
chain: LPAHQQHLLHNDIADGLDKTALSVSGTQSRWTRSESNPTMRLSQNVKPCKSMDIRNMVSHFNQLENCTVIEGFLLIDLINDASPLNRSFPKLTEVTDYIIIYRVTGLHSLSKIFPNLSVIRGNKLFDGYALVVYSNFDLMDLGLHKLRSITRGGVRIEKNHKLCYDRTIDWLEILAENETQLVVLTENGKEKECRLSKCPGEIRIEEGHDTTAIEGELNASCQLHNNRRLCWNSKLCQTKCPEKCRNNCIDEHTCCSQDCLGGCVIDKNGNESCISCRNVSFNNICMDSCPKGYYQFDSRCVTANECITLTKFETNSVYSGIPYNGQCITHCPTGYQKSENKRMCEPCPGGKCDKECSSGLIDSLERAREFHGCTIITGTEPLTISIKRESGAHVMDELKYGLAAVHKIQSSLMVHLTYGLKSLKFFQSLTEISGDPPMDADKYALYVLDNRDLDELWGPNQTVFIRKGGVFFHFNPKLCVSTINQLLPMLASKPKFFEKSDVGADSNGNRGSCGTAVLNVTLQSVGANSAMLNVTTKVEIGEPQKPSNATIVFKDPRAFIGFVFYHMIDPYGNSTKSSDDPCDDRWKVSSPEKSGVMVLSNLIPYTNYSYYVRTMAISSELTNAESDVKNFRTNPGRPSKVTEVVATAISDSKINVTWSYLDKPYGVLTRYFIKAKLINRPTRNNNRDYCTEPLVKAMENDLPATTPTKKISDPLAGDCKCVEGSKKTSSQEYDDRKVQAGMEFENALQNFIFVPNIRKSKNGSSDKSDGAEGAALDSNAIPNGGATNPSRRRRDVALEPELDDVEGSVLLRHVRSITDDTDAFFEKDDENTYKDEEDLSSNKQFYEVFAKELPPNQTHFVFEKLRHFTRYAIFVVACREEIPSEKLRDTSFKKSLCSDYDTVFQTTKRKKFADIVMDLKVDLEHANNTESPVRVRWTPPVDPNGEIVTYEVAYKLQKPDQVEEKKCIPAADFNQTAGYLIKLNEGLYSFRVRANSIAGYGDFTEVEHIKVEPPPSYA
modifications: N-glycosylation at Asn606 (traces in the cryoEM reconstruction)
notes: a starting methionine was added in front; codon optimised; Asn335 is the first residue seen in the maps; Described as an (alpha-beta)2 homodimer; each protomer comes from one expressed precursor chain (alpha and beta subunits), protomers linked by disulfides; Mass used for ITC 233538 g/mol (the dimer); also called dmIR ectodomain; source: Sf9 cells, baculovirus, secreted into conditioned media, …
- stoichiometry N: 2
